Among the data in patent US20200241008 are reader value values, retold here.

This series concerns the target T1, indicator molecule containing the cleavable sequence (GPQGIFGQ) with a terminal biotin group connected via a polyethylene glycol spacer/linker, intact.
T1 chain: GPQGIFGQ

B1: MMP11 (Enzo) (protein)
chain: FVLSGGRWEKTDLTYRILRFPWQLVQEQVRQTMAEALKVWSDVTPLTFTEVHEGRADIMIDFARYWHGDDLPFDGPGGILAHAFFPKTHREGDVHFDYDETWTIGDDQGTDLLQVAAHEFGHVLGLQHTTAAKALMSAFYTFRYPLSLSPDDCRGVQHLYGQPWPTVTSRTPALG
In turn, B1 came in with a reader value at 0.5 µg/ml MMP (lateral flow) of 280 reader units.

B2: MMP7 (Enzo) (protein)
chain: YSLFPNSPKWTSKVVTYRIVSYTRDLPHITVDRLVSKALNMWGKEIPLHFRKVVWGTADIMIGFARGAHGDSYPFDGPGNTLAHAFAPGTGLGGDAHFDEDERWTDGSSLGINFLYAATHELGHSLGMGHSSDPNAVMYPTYGNGDPQNFKLSQDDIKGIQKLYGKRSNSRKK
In the case of B2, the reader value at 0.5 µg/ml MMP (lateral flow) was found to be 373 reader units.

B3: MMP1 (Enzo) (protein)
chain: FVLTEGNPRWEQTHLTYRIENYTPDLPRADVDHAIEKAFQLWSNVTPLTFTKVSEGQADIMISFVRGDHRDNSPFDGPGGNLAHAFQPGPGIGGDAHFDEDERWTNNFREYNLHRVAAHELGHSLGLSHSTDIGALMYPSYTFSGDVQLAQDDIDGIQAIYGRSQNPVQP
B3 had a reader value at 0.5 µg/ml MMP (lateral flow) of 478 reader units.

B4: MMP12 (Enzo) (protein)
chain: GPVWRKHYITYRINNYTPDMNREDVDYAIRKAFQVWSNVTPLKFSKINTGMADILVVFARGAHGDFHAFDGKGGILAHAFGPGSGIGGDAHFDEDEFWTTHSGGTNLFLTAVHEIGHSLGLGHSSDPKAVMFPTYKYVDINTFRLSADDIRGIQSLYG
B4 yielded a reader value at 0.5 µg/ml MMP (lateral flow) of 1250 reader units.
